Bridge positions count the residues as written; N and C are the ends. Square brackets hold non-standard residues; d marks the D form. Peptide text beside a SMILES is read from it. * marks the point of attachment. NOTA = O=C(O)CN1CCN(CC(=O)O)CCN(CC(=O)*)CC1; 2Nal = N[C@@H](Cc1ccc2ccccc2c1)C(=O)O; Pen = CC(C)(S)[C@H](N)C(=O)O; 4Amb = NCc1ccc(C(=O)O)cc1; Ahx = NCCCCCC(=O)O

The subject of data set [1] is NCI-H69 subcutaneous tumor xenografts. On the set-up: species or system mice. The conditions noted are these: mouse, in vivo. The method, then:
The xenografted mice were injected with [^18F]AlF-NOTA-QHY-04 (3.70 ± 0.74 MBq) in about 150 μL saline via the tail vein. All the PET scans were performed with micro-PET/CT (IRIS PET/CT, Inviscan, France) and the radioactivity were expressed as %ID/mL. Detailed procedures for dynamic, static imaging and blocking studies are provided in the supplemental materials. Biodistribution studies were conducted using mice with xenografted A549/CXCR4 tumors with and without blocking (n = 3). The mice were sacrificed immediately after static PET/CT 1 h post injection (p.i.), then the tumors and organs were quickly collected, weighed and counted for radioactivity by a γ-counter. The γ-counter activity readings were background- and decay-corrected and represented as the percentage of injected dose per gram of tissue (%ID/g).
7.4, 150 mM NaCl, 0.005% tween-20) with continuous shaking at 1000 rpm. Biotinylated CXCR4 was immobilized on Super Streptavidin (SSA) biosensors by immersing the sensors in a protein solution of 35 µg/mL. […]
and 1 μM NOTA-QHY-04 sample) was prepared and flowed. […] Prior to fitting, the data were baseline-subtracted and analyzed using a 1:1 binding model and the ForteBio data analysis software. Mean Kd value was determined by applying a global fit to all the data. […]
(§1) NaOH. Finally, the cell lysates were collected and measured by an automatic gamma counter (2470 Wizard2, PerkinElmer). […]

A further data set deals with T1, CXCR4 expression (Homo sapiens, UniProt P61073).
T1 construct: from tissue; host or cells: tumour lesions in cancer patients (DLBCL, SCLC, NSCLC, TNBC, pancreatic carcinoma, glioma, HCC, CRC), in vivo
Particulars: in vivo.
Source text: Potential eligible patients with newly diagnosed tumor were recruited from Shandong Cancer Hospital and institute from November 2022 to December 2023. A total of 55 patients including 8 tumor types were represented in this study (diffuse large B-cell lymphoma (DLBCL), n = 6; SCLC, n = 30; non-small cell lung cancer (NSCLC), n = 4; triple-negative breast cancer (TNBC), n = 3; pancreatic carcinoma, n = 3; glioma, n = 7; hepatocellular carcinoma (HCC), n = 1; and colorectal carcinoma (CRC), n = 1). The [^18F]AlF-NOTA-QHY-04 imaging study in patients was approved by the Institutional Review Board of Shandong Cancer Hospital and Institute (no. SDZLEC2023-256-02), and the patients provided their informed consent before inclusion in this study. In this prospective observational study, [^18F]AlF-NOTA-QHY-04 PET/CT scans should not affect the normal process of routine examinations and treatment as usual. Patients were enrolled according to the following criteria: (1) newly diagnosed cancer patients with visible tumors on conventional imaging; (2) histopathologically confirmed diagnosis; (3) age ≥ 18 years; (4) Eastern Cooperative Oncology Group (ECOG) performance status score of 0-2; (5) no prior cancer-directed therapy; (6) ability to undergo [^18F]AlF-NOTA-QHY-04 PET/CT scanning before treatment initiation. Specifically, regarding histological confirmation, we followed the standard clinical practice guidelines for each type of cancer [21]-[26], and provided detailed descriptions of our approach for obtaining histological evidence in the supplemental materials. […]
as §1
The tumor-bearing mice were injected with 3.70 ± 0.74 MBq of [18F]AlF-NOTA-QHY-04 in about 150 μL saline via the tail vein. […] The PET/CT images were analyzed using OsiriX MD software (Pixmeo SARL, Geneva, Switzerland), and the regions of interest (ROIs) were drawn along the boundary covering the whole tumor volume for quantification of the radioactivity (expressed as %ID/mL). […]

For data set [2] the following is noted: in vivo; cited from earlier work. An excerpt: (Figure 3A and 3B). In contrast, the blood, heart, liver, ...

T1 sequence (P61073 whole entry): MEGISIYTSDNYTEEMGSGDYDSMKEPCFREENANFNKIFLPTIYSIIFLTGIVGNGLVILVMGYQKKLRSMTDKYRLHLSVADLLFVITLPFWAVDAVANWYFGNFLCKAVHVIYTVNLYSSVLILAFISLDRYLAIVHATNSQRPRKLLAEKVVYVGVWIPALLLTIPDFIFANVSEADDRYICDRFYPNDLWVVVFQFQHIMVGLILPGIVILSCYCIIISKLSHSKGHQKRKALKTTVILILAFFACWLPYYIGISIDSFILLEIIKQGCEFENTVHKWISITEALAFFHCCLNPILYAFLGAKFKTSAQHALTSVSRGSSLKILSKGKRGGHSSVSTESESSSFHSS

For `C[C@H](NC(=O)[C@H](CCCNC(=N)N)NC(=O)CCCCCNC(=O)c1ccc(CNC(=O)CN2CCN(CC(=O)O)CCN(CC(=O)O)CC2)cc1)C(=O)N[C@@H]1CSSC(C)(C)[C@@H](C(=O)O)NC(=O)[C@H](Cc2c[nH]cn2)NC(=O)[C@H](Cc2ccc3ccccc3c2)NC(=O)[C@H](CCCNC(=N)N)NC1=O` [[^18F]AlF-NOTA-QHY-04] ({NOTA-4Amb-Ahx}-RA[dC]R[2Nal]H[Pen]-OH; disulfide 3-7), in data set [1], the “time of highest tumor uptake” value was “about 50 min”. Also, in the data set with CXCR4 expression, the SUVmean was determined as 7.52 ± 3.01, the “average SUVmax” value was found to be 6.29 ± 2.85 and the “average T/N (tumor-to-normal brain ratio)” value is 62.55 ± 43.24. Besides, the acute radiotoxicity entry in data set [2] is listed as “no acute radiotoxicity”.

The values are drawn from publication PMC11488100, “PET imaging of CXCR4 expression using [^18F]AlF-NOTA-QHY-04 for hematologic malignancy and solid tumors” (Theranostics, 2024).
